Measurements reported in paper doi:10.1101/2025.09.19.677273.

Target: c8-ring of the Fo domain (bovine (endogenous in bovine heart mitochondria)), P32876
Test: cryo-EM structure
Settings: remark: other sources report otherwise

B1: c8-ring of the Fo domain, P32876 62-136 (natural protein)
chain: DIDTAAKFIGAGAATVGVAGSGAGIGTVFGSLIIGYARNPSLKQQLFSYAILGFALSEAMGLFCLMVAFLILFAM
stoichiometry N: 8
